Where two headings read alike, the source gives them in different places.

In assay [1] the target is T1, NY-ESO-1 (human, UniProt P78358 1-180). The experiment in a line: SPR. For orientation: Surface plasmon resonance follows binding to a sensor surface in real time, without labels.
Assay [2] concerns the target T1, NY-ESO-1. The experiment in a line: SPR. This is another data set of the same source.

T1 sequence (P78358 whole entry): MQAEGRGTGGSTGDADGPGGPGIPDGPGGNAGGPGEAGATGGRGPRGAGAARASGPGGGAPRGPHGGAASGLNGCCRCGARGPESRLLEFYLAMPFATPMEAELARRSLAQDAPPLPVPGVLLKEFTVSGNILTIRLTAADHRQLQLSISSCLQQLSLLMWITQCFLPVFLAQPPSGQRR

B1: BC2-3G1 (antibody, V domains shown)
VH: QVQLQQSGPGLVKPSQTLSLTCAISGDSVSSNSAAWNWIRQSPSRGLEWLGRTYYRSKWYNDYAVSVKSRITINPDTSKNQFSLQLNSVTPEDTAVYYCARDLGIAAAGDFDYWGQGTLVTVSS
VL: EIVLTQSPATLSLSPGERATLSCRASQGVSSYLAWYQQKPGQAPRLLIYDASNRATGIPARFSGSGSGTDFTLTISSLEPEDFAVYYCHQGSNWPTFGGGTKVEI
Consider B1, for which the Kd in the assay with NY-ESO-1 [1] and with NY-ESO-1 [2] was 37 nM throughout.

For the origin of these results see US20200270704A1 (published 2020).
